The target in test [1] is Notch1 antigen protein (amino acids 1-220 of human Notch1 with human Fc-tag or histidine-tag) (human) (UniProt P46531). The experiment in a line: Biacore, binding to Notch1 antigen.
The target of test [2] is T1, Notch1 antigen protein (amino acids 1-220 of human Notch1 with human Fc-tag or histidine-tag) (human, UniProt P46531 19-220).
T1 construct: range 19-220; Made in insect cells with baculovirus; also called Notch1 antigen corresponding to EGF repeats 1-5; not shown: C-terminal human Fc-tag or histidine-tag
T1 sequence (looked up): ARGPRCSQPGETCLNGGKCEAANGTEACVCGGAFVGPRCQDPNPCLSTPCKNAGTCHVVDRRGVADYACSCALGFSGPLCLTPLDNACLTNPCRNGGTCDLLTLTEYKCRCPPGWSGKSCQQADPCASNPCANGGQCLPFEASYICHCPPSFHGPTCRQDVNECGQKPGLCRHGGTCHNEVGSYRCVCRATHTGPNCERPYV
The experiment in a line: Biacore, binding to Notch1 antigen. From the text: The two best humanized 13M57 antibodies (13M57H5 L6 and 13M57H5 L21) were then further characterized. The humanized 13M57 antibodies were purified using protein A chromatography.
In general terms: SPR reads the build-up and loss of mass on a sensor chip optically.

The target of test [3] is T1, Notch1 antigen protein (amino acids …). Description: ELISA of HEK 293 conditioned media on Notch1 antigen; heavy chain cotransfected with the murine 13M57 light chain. How it is done: The functionality of each candidate variant humanized heavy and light chain was tested by cotransfection into mammalian cells. Each of the eleven candidate humanized 13M57 heavy chains described above was cotransfected with the murine 13M57 light chain cDNA into HEK 293 cells, and conditioned media was then assayed for Notch1 antigen binding activity by ELISA. […] This variant—“13M57H5”—contained, in additional to murine CDRs, murine residues at five framework positions, Kabat positions 44, 46, 49, 89, and 93 (FIG. 3). The 13M57H5 humanized heavy chain was then cotransfected with each of the eleven candidate humanized light chains into HEK293 cells, and conditioned media was again assayed for antigen binding by ELISA. […] To evaluate the importance of the individual murine residues in 13M57 L5 and 13M57 L6, a farther series of candidate variant light chains were synthesized that combined one or more of the murine residues at Kabat positions 42-45 and 89-90. These candidate variant light chains were then tested as described above.
(In an ELISA, binding on a coated surface is turned into a signal by an enzyme label.)

Numbering of substitutions follows the chain as printed.

B1: murine monoclonal antibody 13M57 (antibody, from another filing, V domains shown)
VH: EVNLVESGGDLVQPGGSLRLSCAASGFTFSSYTMSWVRQTPEKRLEWVAYIDYGGDFTSYSDAIRGRFTISRDNAKNTLYLQMSSLKSEDTAIYYCSRRRYDAMDYWGQGTSVIVSS
VL: DIQMTQSTSSLSASLGDRVTVSCSASQAISNYLNWYQQKPDGTLKLLIYYTTNLHSGVPSRFSGSGSGTDYSLTISNLEPEDIATYYCQQYSKFPWTFGGGTKLEIKR
B1: the Kd (in general, the equilibrium constant for the complex coming apart) in test [1] was 50 pM.

B2: humanized 13M57H5L6 antibody (antibody, human IgG2, V domains shown)
VH: B1 VH with N3Q, D10G, T40A, E42G, S84N, K87R, S88A, S112L, I114T
VL: DIQMTQSPSSLSASVGDRVTITCSASQAISNYLNWYQQKPGKAPKLLIYYTTNLHSGVPSRFSGSGSGTDYSFTISSLQPEDIATYYCQQYSKFPWTFGGGTKVEIKR
notes: Variant heavy chains were fused in-frame to the human IgG2 constant region; also called 13M57 L6H5; humanized L6H5 13M57
As for B2, the Kd in test [2] was around 80 pM.

B3: 13M57H5 humanized heavy chain cotransfected with the murine 13M57 light chain (antibody, human IgG2, V domains shown)
VH: B1 VH with N3Q, D10G, T40A, E42G, S84N, K87R, S88A, S112L, I114T
VL: DIQMTQSTSSLSASLGDRVTVSCSASQAISNYLNWYQQKPDGTLKLLIYYTTNLHSGVPSRFSGSGSGTDYSLTISNLEPEDIATYYCQQYSKFPWTFGGGTKLEIK
notes: Heavy chain fused to the human IgG2 constant region; tested as conditioned medium from HEK 293 cells
In the case of B3, the binding result in test [3] is on record as “binds”.

B4: humanized 13M57H5L21 antibody (antibody, human IgG2, V domains shown)
VH: B1 VH with N3Q, D10G, T40A, E42G, S84N, K87R, S88A, S112L, I114T
VL: B2 VL with G41D, K42G, A43T, P44L
notes: Human IgG2 heavy chain constant region; also called 13M57 L21H5; ATCC PTA-8424
Regarding B4, in test [2], the Kd was around 100 pM.

For the origin of these results see patent US20090208491A1 (published 2009).
